In patent US20120149104A1 (ALLERGAN, published 2012):
Where a chain is given by its changes, count along the chain named.

B1: α-SNAP-25 monoclonal antibody 2E2A6 (antibody, V domains shown)
VH: QVQLQQSDAELVKPGASVKISCRASGYTFTDHSIHWVKQQPGQGLEWIGYIFPGNGNIEYNDKFKGKATLTADKSSGTAYMQLNSLTSEDSAVYFCKRMGYWGQGTSVTVSS
VL: DVLMTQTPLTLSVTIGQPASISCKSSQSLLYTNGKTYLTWLFQRPGQSPKRLIYLVSELDSGVPDRFSGSGSGTDFTLEITRVEAEDLGVYYCLQSAHFPFTFGSGTKLEIKR
B2: α-SNAP-25 monoclonal antibody 3C1A5 (antibody, V domains shown)
VH: QVKLQESGAELVKPGASVKISCKASGYTFTDHSIHWVKQKPGQGLEWIGYLFPGNGNFEYNEKFKGKATLTADKSSSTVYMYLNSLTSEDSAVYFCKRMGYWGQGTTVTVSS
VL: B1 VL with L3V, Y31N, F42I, K50Q, E58K, E79K, T81S, A97S
B3: α-SNAP-25 monoclonal antibody 1D3B8 (antibody, V domains shown)
VH: QVKLQESGAELVKPGASVKISCKASGYIFTDHALHWVRQKPEQGLEWIGYIFPGNGNIEYNEKFKGKATLTADKSSSTAYMQLNSLTSGDSAMYFCKKMDYWGQGTTVTVSS
VL: DVLMTQTPLSLPVSLGDQASISCRSSQSIVHSNGNTYLEWYLQKPGQSPKLLIYKVSNRFSGVPDRFSGSGSGTDFTLKISRVEAEDLGVYYCFQGSHVPPTFGAGTKLELKR
B4: α-SNAP-25 monoclonal antibody 2C9B10 (antibody, V domains shown)
VH: B2 VH with V79A, Y82H, R98K, G100D
VL: DIQMTQSPASLSASVGETVTITCRTTENIYSYFVWSQQRQGKSPQLRVYNAKSLAEGVPSSFNVSVSGTQFSLKINSLQPEDFGTYHCQHHYGTPYTFGGGTRLEIRR

Key:
[1] = molecular target: T1, SNAP-25 peptide comprising amino acids 134-197 of SEQ ID NO: 5 (human); test: SPR (BIAcore 3000), peptide on CM5 chip, antibody in flow; value in parentheses, second determination not explained; value in parentheses (second set for 2E2A6; KD 0.405 nM, used in paragraph 239)
[2] = molecular target: T2, SNAP-25206 uncleaved substrate (in PC12 cells) (UniProt P60881 1-206); test: cell-based assay, Western blot of PC12 cells +/- GFP-BoNT/A-LC, ascites 1:100
T2 construct: domain: SNAP-25206 uncleaved substrate; also called uncleaved SNAP-25

[3] = molecular target: SNAP-25 peptide comprising amino acids 134-206 of SEQ ID NO: 5 (human); test: SPR (BIAcore 3000), peptide on CM5 chip, antibody in flow
[4] = molecular target: T1, SNAP-25 peptide comprising amino acids …; test: as above
[5] = molecular target: T1, SNAP-25 peptide comprising amino acids …; test: SPR (BIAcore 3000), peptide on CM5 chip, antibody in flow; value in parentheses, second determination not explained
[6] = molecular target: T1, SNAP-25 peptide comprising amino acids …; test: SPR (BIAcore 3000), peptide on CM5 chip, antibody in flow; remark: listed apart in the source

T2 sequence (P60881 whole entry): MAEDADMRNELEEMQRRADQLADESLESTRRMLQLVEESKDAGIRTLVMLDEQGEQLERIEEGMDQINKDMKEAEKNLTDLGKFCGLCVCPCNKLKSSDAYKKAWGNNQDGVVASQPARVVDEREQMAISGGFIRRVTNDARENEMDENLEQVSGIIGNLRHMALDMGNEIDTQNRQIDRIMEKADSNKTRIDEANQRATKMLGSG

Binder | kon [1] [M⁻¹ s⁻¹] | binding result [2] | binding result [3] | Kd [4] [nM] | koff [4] [s⁻¹] | kon [4] [M⁻¹ s⁻¹] | Kd [5] [nM] | koff [5] [s⁻¹] | fold difference of the off rate/dissociation constant against MC-6050 and MC-6053 [6] [fold] | fold difference of the equilibrium disassociation constant against MC-6050 and MC-6053 [6] [fold]
B1 | 166000 | no binding | no binding (tested: 10 µM) | 0.09 | 0.000153 | 1.7e+06 | 0.405 | 6.74e-05 | ≥ 1 | 
B2 |  | no binding | no binding (tested: 100 nM) | 1.33 | 0.000288 | 217000 |  |  |  | 
B3 |  | no binding | no binding (tested: 125 nM) | 0.05 | 5.78e-05 | 1.06e+06 |  |  |  | ~10
B4 |  | no binding |  | 27.1 | 0.000311 | 11500 |  |  |  | 
